Assays:
[1] = tested on: U251 glioma cells; assay: Flow cytometry of intracellular doxorubicin fluorescence, with or without Pgp inhibitor cyclosporine A; format: cell-based, Human; details: 20 μM drug, 2 h
Method: Flow cytometry: Flow cytometry was used to measure total intracellular doxorubicin fluorescence. In this report we refer to fluorescence intensity as intracellular drug content. 1×10^6 cells were exposed to 20 μM of drug as (a) free DXR (b) DXR encapsulated IL13 conjugated liposomes (c) DXR encapsulated unconjugated liposomes for 2 h. All drug treatments and post treatment incubations were performed in complete growth medium. The cells were washed to remove any free adherent DXR using PBS and centrifuged. Cells were released from tissue culture dishes with 0.05% trypsin/0.02% EDTA followed by PBS washing (centrifugation, 5 min 500 g) and resuspended in PBS for flow cytometry assay. The intracellular accumulation of inherently fluorescent doxorubicin was evaluated using a fluorescence activated cell analyzer. A single 15 mW argon ion laser beam (488 nm) was used to excite the fluorescence of DXR. A total of 10000 cells were analyzed for each histogram. Experiments were repeated 3 times and the fluorescence intensities of DXR were expressed in arbitrary units.
Effect of Pgp inhibitor on the internalization of IL13 conjugated liposomes in the glioma cells: About 50000 U251 glioma cells were plated in a small petridish and were exposed to either IL13 conjugated liposomes carrying 20 μM of doxorubicin or the same concentration of free doxorubicin (20 μM) for 2 hours. […]

[2] = target: T1, IL-13Rα2 (Homo sapiens, UniProt Q14627); assay: Cytotoxicity neutralization assay with IL-13 and its mutants against cytotoxin IL13-PE38QQR; format: cell-based; details: 100 ng/ml protein; cytotoxin IL13-PE38QQR fixed at 10 ng/ml
T1 sequence (Q14627 27-380): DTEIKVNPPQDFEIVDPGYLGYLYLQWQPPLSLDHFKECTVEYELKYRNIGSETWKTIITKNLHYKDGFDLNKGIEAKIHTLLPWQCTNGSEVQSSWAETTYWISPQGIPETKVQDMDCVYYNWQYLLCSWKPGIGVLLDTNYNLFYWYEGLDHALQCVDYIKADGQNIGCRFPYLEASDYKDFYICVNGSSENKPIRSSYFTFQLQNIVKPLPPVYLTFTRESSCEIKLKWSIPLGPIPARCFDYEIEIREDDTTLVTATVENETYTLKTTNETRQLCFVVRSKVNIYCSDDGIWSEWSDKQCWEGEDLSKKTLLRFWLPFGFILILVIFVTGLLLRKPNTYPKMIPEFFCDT
Method: Additionally, position K105 of this region of IL-13 is mutated into a variety of amino acids and the mutants' cytotoxic neutralization potential and binding affinity towards IL-13Rα2 is determined. […] In this titered cytotoxicity neutralization experiment, higher neutralization efficiency against the IL13-PE38QQR cytotoxin, for the mutant IL13.K105R is observed (Madhankumar A. B., Mintz, A., and Debinski, W. (2004) Neoplasia (New York) 6, 15-22). IL13.K105R is able to neutralize the cytotoxicity to 99% at 100 ng/ml concentration when compared with its blocking efficiency at 1000 ng/ml concentration. However, the wild type IL-13 and the mutant IL13.K106R and IL13.R109K have only 86.5%, 86.7% and 80.7% of the cytotoxicity neutralization efficiency with respect to their neutralization efficiency at 1000 ng/ml concentration. […] The high affinity mutant IL13.K105R is used as a ligand to conjugate to liposomes in order to better target the glioma associated IL-13Rα2 receptor.

Compound | intracellular doxorubicin fluorescence (flow cytometry curve shift) [1] | cytotoxicity neutralization efficiency with respect to neutralization efficiency at 1000 ng/ml [2] [%]
COc1cccc2c1C(=O)c1c(O)c3c(c(O)c1C2=O)C[C@@](O)(C(=O)CO)C[C@@H]3O[C@H]1C[C@H](N)[C@H](O)[C@H](C)O1 [free DXR, doxorubicin] | increase in the cell fluorescence | 
IL13.K106R: mutant of IL-13 |  | 86.7
wild type IL-13: human cytokine interleukin-13, expressed in E. coli as His-tagged protein |  | 86.5

— US20080206139A1, “DELIVERY SYSTEM FOR DIAGNOSTIC AND THERAPEUTIC AGENTS” (The Penn State Research Foundation, priority 2006, published 2008)
